# Results taken from paper PMC4439124, “Hairy/Enhancer-of-Split MEGANE and Proneural MASH1 Factors Cooperate Synergistically in Midbrain GABAergic Neurogenesis” (PLoS ONE, 2015).
# T1: MGN (MEGANE), yeast two-hybrid fusion (mouse, UniProt Q7TS99 1-240)
# T1 construct: The two Gal4 domains are alternatives: one fusion as bait (BD), another as prey (AD); also called Helt; BD-MGN; source: yeast two-hybrid fusion
# T1 sequence (looked up): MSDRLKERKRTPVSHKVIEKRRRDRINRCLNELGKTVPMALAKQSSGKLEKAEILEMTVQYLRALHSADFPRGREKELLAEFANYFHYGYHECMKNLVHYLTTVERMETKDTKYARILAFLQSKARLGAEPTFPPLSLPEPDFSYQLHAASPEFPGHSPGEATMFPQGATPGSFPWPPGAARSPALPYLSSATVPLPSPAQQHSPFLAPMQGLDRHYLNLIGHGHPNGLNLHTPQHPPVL
# B1: MASH1, yeast two-hybrid fusion (natural protein, mouse, UniProt Q02067 1-231, looked up)
# chain: MESSGKMESGAGQQPQPPQPFLPPAACFFATAAAAAAAAAAAAQSAQQQQPQAPPQQAPQLSPVADSQPSGGGHKSAAKQVKRQRSSSPELMRCKRRLNFSGFGYSLPQQQPAAVARRNERERNRVKLVNLGFATLREHVPNGAANKKMSKVETLRSAVEYIRALQQLLDEHDAVSAAFQAGVLSPTISPNYSNDLNSMAGSPVSSYSSDEGSYDPLSPEEQELLDFTNWF
# notes: The two Gal4 domains are alternatives: one fusion as bait (BD), another as prey (AD); also called Ascl1; MASH1-AD; source: yeast two-hybrid fusion
# Biological target: T1, MGN (MEGANE), yeast two-hybrid fusion
# Experiment: two-hybrid; quantitative β-galactosidase assay on liquid cultures (X-gal; in parallel ONPG, absorbance at 420 nm), five independent transformants per pair, normalised against cell density and dilution
# Settings: partners not purified
binder,measurement,value
B1,fold β-galactosidase activity (strength of interaction) over the MASH1/MASH1 homodimer,4 fold
same,fold β-galactosidase activity (strength of interaction) over the MGN/MGN homodimer,4.4 fold
